B1: GS2291: dsRNA trigger targeting B. cinerea Bcgpi2 (XM_024693470.1); trigger SEQ ID NO 22, RNA 34, reverse complement 46 (nucleic acid, listed as Botrytis cinerea)
sense: CUGUCAACCAAUUGCGCAUGACAAAUGGAGAUGCUGGACGAUUAAGAAGUAGAGGAAGACAUGCUGAUAGAACGAAGAGUAGCACCAGAAGACGGAAAACUACUUGGAAAAAGCUGCUAUGGGUGAAGCAAUCAUAUCCAGACAAUUACACGGAUCAAGAUACAUUUCUCGAACAUCUGCAGCGAAAUCCACGUCUUCAGCCUUACGACUUUUGGCCAUUGGUAGCAGAUUCCACGGUUAUAGUACAACACGUUUGUUCGGUCAUUAUAUUCAUUGUUUCUUUCGUUGGGAUAUAUGAUAAACAUGUCUCGCCAGUUUCUGUGGUUGGCUGGGGCUCUAUUGCUACCUUUUUGGGGUGGGUGUUAUGGGAUUUAUGGGUGGGACAGGAAGAAAGUACUCGUCCAGCAUUUCCACCACCGCAGCCUUUCUCUCACAGUGUAUCUGCAACAAGUUCAACACCAAACCUAUUGGCAACAGCUGCAAGUGGGCCAAGGCAAUCCUACUCGAUGUCAACAACAUCUCUUCAAUCUACAGCCUCGAAUCUAACCCAACCACCUCCAAUACGACCGGUUUAUACACCACAUAAUU
antisense: AAUUAUGUGGUGUAUAAACCGGUCGUAUUGGAGGUGGUUGGGUUAGAUUCGAGGCUGUAGAUUGAAGAGAUGUUGUUGACAUCGAGUAGGAUUGCCUUGGCCCACUUGCAGCUGUUGCCAAUAGGUUUGGUGUUGAACUUGUUGCAGAUACACUGUGAGAGAAAGGCUGCGGUGGUGGAAAUGCUGGACGAGUACUUUCUUCCUGUCCCACCCAUAAAUCCCAUAACACCCACCCCAAAAAGGUAGCAAUAGAGCCCCAGCCAACCACAGAAACUGGCGAGACAUGUUUAUCAUAUAUCCCAACGAAAGAAACAAUGAAUAUAAUGACCGAACAAACGUGUUGUACUAUAACCGUGGAAUCUGCUACCAAUGGCCAAAAGUCGUAAGGCUGAAGACGUGGAUUUCGCUGCAGAUGUUCGAGAAAUGUAUCUUGAUCCGUGUAAUUGUCUGGAUAUGAUUGCUUCACCCAUAGCAGCUUUUUCCAAGUAGUUUUCCGUCUUCUGGUGCUACUCUUCGUUCUAUCAGCAUGUCUUCCUCUACUUCUUAAUCGUCCAGCAUCUCCAUUUGUCAUGCGCAAUUGGUUGACAG
B2: GS2640: dsRNA trigger targeting B. cinerea Bcsec15 (XM_024692064.1); trigger SEQ ID NO 50, RNA 54, reverse complement 58 (nucleic acid, listed as Botrytis cinerea)
sense: AAAUUCAGCACAGAUUUUCAACAGAUUGUGUCUACCGAUGAAUACAUGCCUAUGCCUGUCAAUAGCGAAGAAGACUUUGAUAAAAUCAUUCAAGUCAGUUGGUAUGUUCCGGACAGACCGAAAGAAGAAUACACAUUCCCCGGUGUAUUACCAUUCUCCCAGAUGUACCCAAUGUGCUGUAUAGAUAUCAGAAAUUUCCUGAAUCGAUUCUACUUCAUAAUGGAUGAUCAUUUUCAACAGCCAAACAUUAUUGAUGAGACACUUAAGAAGUCGAUAGAUGAGCUUCUGUCUGAGGAUAUUU
antisense: AAAUAUCCUCAGACAGAAGCUCAUCUAUCGACUUCUUAAGUGUCUCAUCAAUAAUGUUUGGCUGUUGAAAAUGAUCAUCCAUUAUGAAGUAGAAUCGAUUCAGGAAAUUUCUGAUAUCUAUACAGCACAUUGGGUACAUCUGGGAGAAUGGUAAUACACCGGGGAAUGUGUAUUCUUCUUUCGGUCUGUCCGGAACAUACCAACUGACUUGAAUGAUUUUAUCAAAGUCUUCUUCGCUAUUGACAGGCAUAGGCAUGUAUUCAUCGGUAGACACAAUCUGUUGAAAAUCUGUGCUGAAUUU
B3: GS2589: dsRNA trigger targeting B. cinerea Bcsec15 (XM_024692064.1); trigger SEQ ID NO 49, RNA 53, reverse complement 57 (nucleic acid, listed as Botrytis cinerea)
sense: GGUAUGUUCCGGACAGACCGAAAGAAGAAUACACAUUCCCCGGUGUAUUACCAUUCUCCCAGAUGUACCCAAUGUGCUGUAUAGAUAUCAGAAAUUUCCUGAAUCGAUUCUACUUCAUAAUGGAUGAUCAUUUUCAACAGCCAAACAUUAUUGAUGAGACACUUAAGAAGUCGAUAGAUGAGCUUCUGUCUGAGGAUAUUU
antisense: AAAUAUCCUCAGACAGAAGCUCAUCUAUCGACUUCUUAAGUGUCUCAUCAAUAAUGUUUGGCUGUUGAAAAUGAUCAUCCAUUAUGAAGUAGAAUCGAUUCAGGAAAUUUCUGAUAUCUAUACAGCACAUUGGGUACAUCUGGGAGAAUGGUAAUACACCGGGGAAUGUGUAUUCUUCUUUCGGUCUGUCCGGAACAUACC
B4: GS2641: dsRNA trigger targeting B. cinerea Bcsec15 (XM_024692064.1); trigger SEQ ID NO 51, RNA 55, reverse complement 59 (nucleic acid, listed as Botrytis cinerea)
sense: CAAACAAUGGAGGGUUGGGGAUAUUCAGUUGCCAUAUUAGAUGCUUAUGUGCUUAAGCUUUUCUAUAGAUAUGCUGAUUUGUUAAAACGGAAAUUCAGCACAGAUUUUCAACAGAUUGUGUCUACCGAUGAAUACAUGCCUAUGCCUGUCAAUAGCGAAGAAGACUUUGAUAAAAUCAUUCAAGUCAGUUGGUAUGUUCCGGACAGACCGAAAGAAGAAUACACAUUCCCCGGUGUAUUACCAUUCUCCCAGAUGUACCCAAUGUGCUGUAUAGAUAUCAGAAAUUUCCUGAAUCGAUUCUACUUCAUAAUGGAUGAUCAUUUUCAACAGCCAAACAUUAUUGAUGAGACACUUAAGAAGUCGAUAGAUGAGCUUCUGUCUGAGGAUAUUU
antisense: AAAUAUCCUCAGACAGAAGCUCAUCUAUCGACUUCUUAAGUGUCUCAUCAAUAAUGUUUGGCUGUUGAAAAUGAUCAUCCAUUAUGAAGUAGAAUCGAUUCAGGAAAUUUCUGAUAUCUAUACAGCACAUUGGGUACAUCUGGGAGAAUGGUAAUACACCGGGGAAUGUGUAUUCUUCUUUCGGUCUGUCCGGAACAUACCAACUGACUUGAAUGAUUUUAUCAAAGUCUUCUUCGCUAUUGACAGGCAUAGGCAUGUAUUCAUCGGUAGACACAAUCUGUUGAAAAUCUGUGCUGAAUUUCCGUUUUAACAAAUCAGCAUAUCUAUAGAAAAGCUUAAGCACAUAAGCAUCUAAUAUGGCAACUGAAUAUCCCCAACCCUCCAUUGUUUG

How the values were obtained:
Botrytis cinerea conidia = test: In vitro liquid-based assay (fungal biomass, 96-well plates, Cytation 5); assay type: cell-based; settings: co-incubated with conidia for three days, vs untreated control
Experimental: Fungal culture. The Botrytis cinerea was plated each week the culture onto Malt Extract Agar (MEA) from long-term storage on silica stored at 4° C. Three pellets of silica were added to the center of a MEA agar plate and grown at room temperature without parafilm/tape seal for 10-14 days before use; a culture 12 days old was typically used.
Spore and media preparation. A pure culture of B. cinerea was flooded with a 0.01% Triton x-100 solution and conidia scraped free with a sterile hockey stick. The suspension was transferred to two, 1.5 mL centrifuge tubes and centrifuged at 8000 rpm for two minutes. The supernatant was discarded, pelleted spores washed twice with sterile water, then resuspended in sterile water. Conidia were quantified using a hemacytometer and diluted to a final concentration of 5000 conidia/mL stock. A stock solution of 1.25× minimal media was prepared for the assay setup using the components below. Once the stock solution was made, the pH was adjusted to 6.0 using NaOH or KOH, then filter sterilized through a 0.2 um filter tower and vacuum pump and stored at 4° C. The Kao & Michayluk Vitamins (100×) is a filter sterilized stock solution. The stock contains vitamins and amino acids as described by Kao & Michayluk. After filter sterilization, 20 mg of 4-Aminobenzoic acid in 100 ml of solution was added.
Experimental setup. Screening assays were setup in 96-well plates with conidia co-incubated with treatments (controls and dsRNAs) for three days before determining fungal biomass. Each treatment was replicated eight times within a single plate. In each well consisted of 12.5 μl of conidia suspension, 25 μl of the treatment, 12.5 μl of sterile deionized water, and 200 μl of minimal media. Each plate was covered with a breath right film and placed in the percival growth chamber at 23° C. on the shaking platform set to 120 RPM with 24-hour lighting. Plates were incubated for 72 hours before determining fungal growth.
Reading assay plate. Fungal biomass was determined by reading plates with the Cytation 5 machine. The program was set to compile 8 photo slices per well under brightfield microscopy with a 2.5× lens to measure biomass.
Data analysis. Analysis will automatically run on Cytation5 to determine final biomass.
Results are shown in Table 1B representing the average reduction in biomass vs. control for tested sequences across several runs described above.

[1] = test system: Botrytis cinerea isolate (B05.10); test: Detached leaf assay (tomato leaflets, lesion size); assay type: in vivo; settings: five days post inoculation, vs untreated inoculated control
Experimental: Plant tissue. Tomato plants, variety Brandywine, were grown in the greenhouse for 3 weeks before harvesting the first true leaves for assays. Nodes 2-4 were prioritized for harvest and only lateral leaflets were used for assays. Leaflets of approximately the same size were used each week and were randomized among treatments. Detached leaflets were immediately brought into the lab for treatment and used within 4 hours of harvest. Detached leaflets were kept at 4° C. until they were treated and placed onto a 1% water agar medium for incubation.
Fungal culture. A Botrytis cinerea isolate (B05.10) was preserved on silica for long-term storage and pulled from these tubes stored at 4° C. for growth on a nutritive medium. Three pellets of silica were added to the center of a Malt Extract Agar (MEA) agar plate and grown at room temperature without parafilm/tape seal for ˜14 days, or until abundant conidia formation, before use.
Treatment of leaflets. Leaflets were treated 24 hours before inoculation and applied using an atomizer to get a fine mist of small droplets entirely covering the leaflet. Silwet L-77 was used as a spreader and added for a 0.03% final concentration (Silwet L-77 brand Phyto Technology Laboratories, S7777 Lot #14D7777001 F). The inoculated control was sprayed with the same volume of sterile DI water with Silwet L-77 in the absence of fungicide or experimental material. Leaflets were spray treated by laying them on a paper towel and holding the atomizer ˜6″ away from the leaflet for applications. Treated leaves were placed on a 1% water agar (10 g Bacto Agar, Difco, in 1 L deionized water, sterilized for 30 minutes at 121° C. and poured when reached a temp of 55° C. into 100×20 mm Petri dishes), with lids of the Petri dishes placed back on before putting Petri dishes under plastic bags to maintain humidity before inoculation the following day. Petri dishes of treated leaflets were left on the lab counter until the following day. Each treatment was replicated ten times with each replicate being a single treated leaflet with two inoculation sites, one on each side of the leaf midvein.
Inoculation. The conidial suspension was prepared by pouring a 7% white grape juice solution onto the culture plate, then scraping the plate with a sterile spatula to dislodge the spores and mycelia. The grape juice solution was prepared by mixing Welch's brand organic white grape juice into sterile deionized water. After dislodging the spores and mycelia of the culture, the suspension was poured through two layers of cheesecloth to remove fungal mycelia and catch the conidial suspension in a clean 50 mL conical tube. Approximately 3 uL of TWEEN 20 was added to conidial suspension to prevent sticking to conical tube. The spore concentration was determined using a Neubauer Improved hemocytometer and inoculum was diluted with more 7% grape juice until a spore concentration of 1×10^5 conidia/mL was reached. Inoculum was used to inoculate host tissue within 2 hours of preparation. Each tomato leaflet was inoculated twice, with inoculation sites placed one per side of the leaflet midvein. A 10 μL volume of spore suspension was placed at each inoculation site using a repeater pipette. Special care was taken not to touch the tip to leaflet surface to avoid contamination between treatments.
Incubation. Petri dishes were placed on lunch trays 6 plates high and moved to an incubator. The incubator was humidity controlled and holds at ˜75% relative humidity. The incubator was kept on 12/12 light/dark days and is set to a temperature of 23° C.
Rating. Measurements were taken at five days post inoculation (DPI). Each lesion that developed was measured using electronic calipers in 2 directions perpendicular to each other to help determine lesion diameter.
Data analysis. Data was analyzed using the SAS JMP statistical program (version 13.2.1) with comparisons made to the untreated, inoculated control. […]

Molecule | Average % Reduction in Biomass (Botrytis cinerea conidia; 25 ppm dsRNA) | Average % Reduction in Biomass (Botrytis cinerea conidia; 150 ppm dsRNA) | Average % Reduction in Lesion Size ([1]; 30 ppm) | Average % Reduction in Lesion Size ([1]; 50 ppm)
B1 | 5% | 24% | 28.77% | 46.11%
B2 | 24% | 54% | 19.63% | 22.76%
B3 | 20% | 39% |  | 
B4 | 14% | 37% | 15.75% | 30.49%
